According to the supplement of paper PMC10567573:

B1: ADD1 (parent)
chain: GEGTGSPPKWQIGEQEFEALMRML

Variants of: B1
Assay: protein stability index of a GFP-peptide fusion (GPS, HEK-293T) (PSI 1-6); higher = more stable
Settings: c terminus: a fixed tail appended
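Also: lentivirally expressed fusions sorted by FACS into six bins by GFP to DsRed ratio, PSI derived from sequencing read proportions per bin multiplied by bin number.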

Protein stability index, by site and new letter:
P7: K 3.23; Q 3.04; L 2.33; G 2.52; H 2.89; D 3.09; W 2.08; T 2.23; R 2.63; E 3.04; Y 2.14; M 2.33; A 2.92; N 2.88; S 2.45; V 2.62; I 2.46; C 2.59; F 3.61
R22: D 3.61; G 3.09; Q 3.3; E 3.39; C 2.21; N 3.62; V 2.14; S 3.44; I 2.49; W 2.2; Y 2.37; F 2.79; P 3.75; A 3.18; M 2.55; T 3; L 2.09; H 2.92
A19: K 2.69; P 3.25; H 3.65; V 2.97; S 2.94; E 4.04; D 4.11; R 3.59; F 2.67; Y 3.09; T 3.25; M 2.7; W 2.31; N 4.03; L 2.85; G 3.22; C 3.43; I 2.39; Q 3.65
K9: S 3.48; Y 3.43; Q 3.25; E 3.82; D 3.33; M 2.93; L 2.34; N 3.53; I 2.58; C 2.28; G 3.14; H 3.08; P 3.42; V 2.49; F 2.8; T 2.95; R 3.07; W 2.63; A 3.76
I12: E 4.45; P 3.72; R 3.12; Y 3.69; S 3.83; F 3.09; H 3.75; M 3.38; W 2.81; A 3.9; G 4.08; Q 4.11; L 3.06; C 3.27; T 3.7; K 3.03; V 3.22; N 3.55; D 4.45
L24: A 3.83; C 3.52
Q11: I 2.97; N 3.53; R 3.46; K 4.08; V 2.86; D 3.82; A 2.86; P 3.33; Y 2.57; G 2.66; F 3.22; L 2.98; T 3.51; E 3.24; C 2.76; H 3.23; W 3.04; S 3.42; M 3.54
W10: A 3.71; M 3.27; V 3.67; N 4.19; Y 3.14; F 3.26; R 4.22; S 4.2; K 3.57; H 3.99; L 3.06; P 3.81; T 3.42; C 2.93; D 4.58; I 2.86; Q 3.5; G 3.97; E 4.28
G13: F 2.69; Q 3.58; S 3.22; V 2.5; M 2.94; R 2.99; T 2.74; K 3.21; D 3.65; H 3.29; L 2.84; E 4.05; N 2.78; W 3.37; C 3.22; Y 2.66; A 3.85; I 2.92; P 3.74
E18: T 3; F 1.93; S 3.17; G 2.69; R 2.07; C 2.82; P 3.39; Q 3.22; H 2.1; N 2.47; K 2.9; A 2.76; W 1.85; I 2.37; V 2.3; D 3.69; M 2.95; Y 2.08; L 2.41
E16: Q 2.37; L 1.4; A 2.33; R 2.51; S 3.06; F 1.59; D 3.52; G 2.5; K 2.53; T 2.4; Y 1.71; P 2.61; M 1.74; I 1.31; W 2.54; H 2.8; C 2.75; V 1.6; N 3.1
E14: R 2.6; M 2.72; C 2; F 2.1; I 3.39; G 2.92; P 2.93; T 2.79; K 3.61; S 2.94; V 2.29; H 3.09; W 1.97; A 3.16; Q 3.19; D 3.17; L 2.3; N 2.96; Y 1.8
M21: W 2.83; R 3.18; D 4.41; H 4.16; P 4.2; F 3.47; C 3.18; G 3.87; Y 3.09; T 3.13; L 2.82; I 2.99; K 3.49; V 3.11; N 3.71; S 3.66; Q 3.83; E 4.16; A 3.35
L20: E 4.77; M 3.64; D 4.8; F 3.07; I 2.46; Q 5.25; V 3.48; H 4.97; C 4.05; N 4.89; T 3.63; R 4.19; Y 3.97; P 4.45; K 4.4; A 4.61; G 4.67; W 3.61; S 5.12
S6: L 3.03; Y 2.59; P 2.95; W 2.19; Q 2.85; K 2.12; R 3.75; N 2.8; M 3.91; V 2.46; T 2.68
P8: M 2.63; V 2.2; D 3.84; G 3; S 2.82; L 2.6; N 3.24; E 3.66; Q 2.79; T 2.85; Y 2.49; W 2.29; R 3.14; I 2.31; C 2.27; F 2.36; H 2.56; K 2.52; A 3.07
Q15: C 2.9; S 3.13; D 3.48; A 2.75; K 2.47; W 1.86; N 3.03; L 2.22; E 3.33; T 3.09; V 2.39; G 2.99; I 2.49; H 2.83; R 2.59; F 2.33; P 3.51; Y 2.25; M 2.6
M23: E 5.04; G 4.56; Y 2.96; A 3.58; H 3.1; T 3.38; V 3.43; L 2.74; K 4.49; R 4.26; I 2.16; S 4.68; P 4.76; D 5.08; C 3.74; F 2.52; Q 4.44; N 4.8
F17: I 3.15; C 3.33; Y 3.94; P 4.79; M 3.52; W 3.6; V 3.84; G 4.19; K 3.88; D 4.82; A 3.92; R 3.83; S 4.28; N 3.55; H 4.32; Q 4.76; E 4.52; T 3.75; L 3.37
